Data from PMC12022973, “Proteomimetic Strategy for the Modulation of Intrinsically Disordered Protein MYC” (Journal of the American Chemical Society, 2025).
Blank lines part the entries; values can stand above or below the binder they belong to. Positions of bridges follow the written chain, without caps; N, C: chain ends. Chains are numbered I, II in the order given. No end group written: not given here.

Target: T1, recombinant human MYC^353–437 protein (human)
T1 construct: MYC, human, residues 353-437; Aggregates above 5 μM; also called His6-MYC^353–437; source: recombinant
Test: fluorescence polarisation; fluorescein-labeled CHDs with His6-MYC^353–437, His6-MAX or the MYC/MAX complex; MYC up to 5 μM (aggregation above)
Settings: both partners purified

- Kd: > 5000 nM
B1: fluorescein-labeled CHD^Max-3 (negative control) (designed binder)
chain 1: LREKAATLQWCIEELRK
chain 2: LRRKAETAQWEIEELC
modifications: bridge I:11-II:16; not fully specified (bridges); also: fluorescein label, chain and position not given here

- Kd: 880 ± 53 nM
B2: fluorescein-labeled CHD^Max-2 (designed binder)
chain 1: LREKIATLQWCIEELRK
chain 2: LEARIETHQWRIRELCE
modifications: bridge I:11-II:16; not fully specified (bridges); also: fluorescein label, chain and position not given here

- Kd: 350 ± 17 nM
B3: fluorescein-labeled CHD^Max-1 (cross-linked helix dimer derived from MAX) (designed binder)
chain 1: LREKIATLQWCIEELRK
chain 2: LRRKNETHQWEIEELC
modifications: bridge I:11-II:16; not fully specified (bridges); also: fluorescein label, chain and position not given here
